According to publication PMC9247205:

Target: GST-SF1KQ (EhSF1 KH-QUA2 domain) (Entamoeba histolytica) (UniProt C4M4V3)
Test: EMSA
Details: EMSA: 50 ug protein (Fig 4), 200 fmol probe, 20 min (+10 min with U2 snRNA); binding buffer as in Ortuno-Pineda 2012, not given; UV crosslinking at pH 7.6 or …

Sequence “AACUUUUAUUU [E. histolytica RabX13 intron BS probe (P+)]” has a binding signal of 50%.
Sequence “UAUACUAACAA [yeast canonical BS probe (C+)]” has a binding signal of 50%.
